The record followed here is publication PMC5960627 (Biochemical pharmacology, 2018).

Bounds are passed on as bounds.

For this assay, the target named is Calmodulin (UniProt P0DP23 1-149). Kind of assay: other fluorescence titration.

One may read the Kd as the equilibrium constant for the complex coming apart. YTLIWKALKKAYEIQKNK (domain or fragment) [BSAT1R_(215-232), FRET biosensor with AT1R a.a. 215-232 (part of SMD3) between EYFPc and ECFP] gave a Kd of 1.05 µM. The molecule FKRYFLQLLKYIPPKAKSH (domain or fragment) [BSAT1R_(309-327), FRET biosensor with AT1R a.a. 309-327 (SMD4JM) between EYFPc and ECFP] came in with a Kd of 0.51 µM.

AKRYALQLLKAIPPKAQSH (domain or fragment) [BSAT1R_(309-327mut), FRET biosensor with mutant AT1R a.a. 309-327 (SMD4JM) between EYFPc and ECFP] gave a Kd of 6.6 µM.

The molecule DRYLAIVHPMKSRLRRT (domain or fragment) [BSAT1R_(125-141), FRET biosensor with AT1R a.a. 125-141 (SMD2) between EYFPc and ECFP] had a Kd of 13.9 µM. Then DQALAIVHPMKSQLRQT (domain or fragment) [BSAT1R_(125-141mut), FRET biosensor with mutant AT1R a.a. 125-141 (SMD2) between EYFPc and ECFP], with above 318 µM; and YTLIAKALKKAAEIQKNQPRNDDIAKII (domain or fragment) [BSAT1R_(215-242mut), FRET biosensor with mutant AT1R a.a. 215-242 (SMD3) between EYFPc and ECFP], with 4.52 µM; and YTLIWKALKKAYEIQKNKPRNDDIFKII (domain or fragment) [BSAT1R_(215-242), FRET biosensor with AT1R a.a. 215-242 (entire SMD3) between EYFPc and ECFP], with 0.36 µM.
